From US20230288413A1

Experiments:
[1] = biological target: anti-S1 fragment of SARS-CoV-2's spike protein antibody; assay: lateral flow dipstick; capture antibody trapped in 5% acrylamide hydrogel; S1-coated gold nanoparticles as reporter (FIG. 3, panel b)
[2] = biological target: anti-S1 fragment of SARS-CoV-2's spike protein antibody; assay: lateral flow dipstick; capture antibody immobilized by physical adsorption; S1-coated gold nanoparticles as reporter (FIG. 3, panel a)
[3] = biological target: anti-S1 fragment of SARS-CoV-2's spike protein antibody; assay: lateral flow dipstick; capture antibody held by streptavidin trapped in the hydrogel; S1-coated gold nanoparticles as reporter (FIG. 3, panel c)
[4] = biological target: anti-S1 fragment of SARS-CoV-2's spike protein antibody; assay: lateral flow dipstick; separate experiment with improved hydrogel and streptavidin; S1-coated gold nanoparticles as reporter (FIG. 3, panel d)

“biotin-SP-conjugated anti-human IgG Fc (antibody)” was tested, and the limit of detection [1] was 1 ng, the limit of detection [2] was 10 ng and the limit of detection [3] was 0.1 ng. For the same substance, the limit of detection [4] was 0.05 ng.
